Patent publication US6462173B1, “Inhibitors of phosphoserine and phosphothreonine-proline-specific isomerases” (Max-Planck-Gesellschaft zur Forderung der, priority 1997, dated 2002)

B1: Mos: mitotic phosphoprotein, Xenopus Mos clone (protein)
chain: MPSPIPVERFLPRDLSPSIDLRPCSSPLELSHRKLPGGLPACSGRPRLLPPRLAWCSIDWEQVLLLEPLGSGGFGSVYRATYRGETVALKKVKRSTKNSLASRQSFWAELNAARLRHPHVVRVVAASASCPGDPGCPGTIIMEYTGTGTLHQRIYGRSPPLGAEICMRYARHVADGLRFLHRDGVVHLDLKPANVLLAPGDLCKIGDFGCSQRLREGDEAAGGEPCCTQLRHVGGTYTHRAPELLKGEPVTAKADIYSFAITLWQMVSRELPYTGDRQCVLYAVVAYDLRPEMGPLFSHTEEGRAARTIVQSCWAARPQERPNAEQLLERLEQECAMCTGGPPSCSPESNAPPPLGTGL
B2: E-MAP-115: cytoskeletal/spindle protein, predicted Pin1 substrate (protein, UniProt Q14244 2-749, looked up)
Ensconsin: AELGAGGDGHRGGDGAVRSETAPDSYKVQDKKNASSRPASAISGQNNNHSGNKPDPPPVLRVDDRQRLARERREEREKQLAAREIVWLEREERARQHYEKHLEERKKRLEEQRQKEERRRAAVEEKRRQRLEEDKERHEAVVRRTMERSQKPKQKHNRWSWGGSLHGSPSIHSADPDRRSVSTMNLSKYVDPVISKRLSSSSATLLNSPDRARRLQLSPWESSVVNRLLTPTHSFLARSKSTAALSGEAASCSPIIMPYKAAHSRNSMDRPKLFVTPPEGSSRRRIIHGTASYKKERERENVLFLTSGTRRAVSPSNPKARQPARSRLWLPSKSLPHLPGTPRPTSSLPPGSVKAAPAQVRPPSPGNIRPVKREVKVEPEKKDPEKEPQKVANEPSLKGRAPLVKVEEATVEERTPAEPEVGPAAPAMAPAPASAPAPASAPAPAPVPTPAMVSAPSSTVNASASVKTSAGTTDPEEATRLLAEKRRLAREQREKEERERREQEELERQKREELAQRVAEERTTRREEESRRLEAEQAREKEEQLQRQAEERALREREEAERAQRQKEEEARVREEAERVRQEREKHFQREEQERLERKKRLEEIMKRTRRTEATDKKTSDQRNGDIAKGALTGGTEVSALPCTTNAPGNGKPVGSPHVVTSHQSKVTVESTPDLEKQPNENGVSVQNENFEEIINLPIGSKPSRLDVTNSESPEIPLNPILAFDDEGTLGPLPQVDGVQTQQTAEVI
B3: Plx1: mitotic phosphoprotein (protein)
chain: MAQVAGKKLTVAPEAAKPPGIPGSSSAVKEIPEILVDPRTRRRYLRGRFLGKGGFAKCYEITDLESREVFAGKIVPKTMLLKPHQKDKMTMEIAIQRSLDHRHVVGFHGFFEDNDFVYVVLELCRRRSLLELHKRRKAVTEPEARYYLKQTISGCQYLHSNRVIHRDLKLGNLFLNDEMEVKIGDFGLATKVEYDGERKKTLCGTPNYIAPEVLGKKGHSFEVDIWSIGCIMYTLLVGKPPFETSCLKETYMRIKKNEYSIPKHINPVAAALIQKMLRSDPTSRPTIDDLLNDEFFTSGYIPSRLPTTCLTVPPRFSIAPSTIDQSLRKPLTAINKGQDSPLVEKQVAPAKEEEMQQPEFTEPADCYLSEMLQQLTCLNAVKPSERALIRQEEAEDPASIPIFWISKWVDYSDKYGLGYQLCDNSVGVLFNDSTRLIMYNDGDSLQYIERNNTESYLNVRSYPTTLTKKITLLKYFRNYMSEHLLKAGANTTPREGDELARLPFLRTWFRTRSAIILHLSNGTVQINFFQDHTKIILCPLMAAVSYIDEKREFRTYKLSLIQEFGCCKELASRLRYARTMVEKLQSSKSAVAHVKASA
B4: Cdc25: mitotic phosphoprotein, phosphatase; Xenopus Cdc25 clone translated in vitro (protein)
chain: STELFSSTREEGSSGSGPSFRSNQRKMLNLLLERDTSFTVCPDVPRTPVGKFLGDSANLSILSGGTPKRCLDLSNLSSGEITATQLTTSADLDETGHLDSSGLQEVHLAGMNHDQHLMKCSPAQLLCSTPNGLDRGHRKRDAMCSSSANKENDNGNLVDSEMKYLGSPITTVPKLDKNPNLGEDQAEEISDELMEFSLKDQEAKVSRSGLYRSPSMPENLNRPRLKQVEKFKDNTIPDKVKKKYFSGQGKLRKGLCLKKTVSLCDITITQMLEEDSNQGHLIGDFSKVCALPTVSGKHQDLKYVNPETVAALLSGKFQGLIEKFYVIDCRYPYEYLGGHIQGALNLYSQEELFNFFLKKPIVPLDTQKRIIIVFHCEFSSERGPRMCRCLREEDRSLNQYPALYYPELYILKGGYRDFFPEYMELCEPQSYCPMHHQDHKTELLRCRSQSKVQEGERQLREQIALLVKDMSP
B5: Splicing factor SC35: nuclear/splicing protein, predicted Pin1 substrate (protein, UniProt Q01130 2-221, looked up)
Serine/arginine-rich splicing …: SYGRPPPDVEGMTSLKVDNLTYRTSPDTLRRVFEKYGRVGDVYIPRDRYTKESRGFAFVRFHDKRDAEDAMDAMDGAVLDGRELRVQMARYGRPPDSHHSRRGPPPRRYGGGGYGRRSRSPRRRRRSRSRSRSRSRSRSRSRYSRSKSRSRTRSRSRSTSKSRSARRSKSKSSSVSRSRSRSRSRSRSRSPPPVSKRESKSRSRSKSPPKSPEEEGAVSS
B6: NIMA: mitotic phosphoprotein, kinase (protein)
chain: MAIALAEADKYEVLEKIGCGSFGIIRKVKRKSDGFILCRKEINYIKMSTKEREQLTAEFNILSSLRHPNIVAYYHREHLKASQDLYLYMEYCGGGDLSMVIKNLKRTNKYAEEDFVWRILSQLVTALYRCHYGTDPAEVGSNLLGPAPKPSGLKGKQAQMTILHRDLKPENIFLGSDNTVKLGDFGLSKLMHSHDFASTYVGTPFYMSPEICAAEKYTLRSDIWAVGCIMYELCQREPPFNARTHIQLVQKIREGKFAPLPDFYSSELKNVIASCLRVNPDHRPDTATLINTPVIRLMRREVELNNLSRAARKREEATMQKAKDVEQAFAKLEKEKQQIRSELENSIRREWEVKARLEIDRQVQNELDKLRKRFECEVQDRVAQEVEKQRRNANYREDASLRSSGHSSQMSSSNSEDSDFPSSTDISQLSLESPTNKAAKLPKKESRTPFTRSKTVVDSPMDIQMAEPSPISIASLSLSPRRTSATYSGKNIFAEGERKRPKFEPTLAYSDDEDDTPELPSPTRPKVKPDPFKAPSRPLLRQNTTALMQKLSTQPPIFPANPSRLPQMSAPDVRESKSRSPHRRLSKIPSSANLAADAGSPTRKNGVKSSPSKMNGGDEMFKAVMQRNMGGRTLVELAQARAGGRPIDEVKRCASDSRSGCSVPMKSADRDPPAVWDPERDEMPSPFLARGRKVIRNLR

Key:
[1] = target: T1, Pin1 (Homo sapiens, UniProt Q13526); experiment: Pin1 precipitation from interphase and mitotic HeLa extracts probed with antibodies to known mitotic phosphoproteins; format: binding
T1 construct: fusion protein containing full length Pin1 was bacterially expressed, purified; made in house
T1 sequence (Q13526 whole entry, the tested form may be a part): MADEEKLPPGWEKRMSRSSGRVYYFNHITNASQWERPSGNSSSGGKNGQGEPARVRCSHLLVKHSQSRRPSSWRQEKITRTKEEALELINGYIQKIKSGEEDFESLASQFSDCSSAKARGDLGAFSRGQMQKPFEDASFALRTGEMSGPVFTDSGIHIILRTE
Description: (§1) To detect Pin1-binding proteins, either HeLa cells were lysed in or Xenopus extracts were diluted in a buffer (buffer A) containing 50 mM Tris-HCl, pH 8.0, 200 mM NaCl, 100 mM NaF, 1 mM sodium orthovanadate, 10% glycerol, 1% Triton X100, 10 μg/ml aprotinin, 50 μg/ml phenylmethylsulfonyl fluoride and 1 mM DTT. The lysates were preclarified with boiled S. aureus bacteria (CalBiochem) and then incubated with 10 μl of agarose beads containing various GST-Pin1 proteins or control GST for 2 h at 4° C. The precipitated proteins were washed 5 times in the same buffer and subjected to immunoblotting analysis. Immunoprecipitation and immunoblotting analysis using MPM-2 antibody (Davis et al. 1983), which was kindly provided by J. Kuang, Pin1 antibodies (Lu et al., 1996, kindly provided by M. White or newly generated), anti-phospho.Tyr antibody (UBI), anti-Cdc25C (Ogg, et al., 1994) (from H. Piwnica-Worms and Santa Cruz Biotechnology), anti-Cdc27, anti-Plk1 (Zymed), anti-Cdc2 (Solomon, M. J., M. Glotzer, T. H. Lee, M. Philippe and M. W. Kirschner. Cell 63:1013-1024 (1991), anti-human Myt1, anti-human cyclin B1 and anti-Xenopus cyclin B were performed, as described previously in Lu and Hunter, 1995; Lu et al., 1996).
Several known mitotic regulators such as cyclin B, Cdc25, Myt1, Plk1 and Cdc27 are phosphorylated at mitosis. To identify at least a few of the many Pin1 binding proteins, Pin1-binding proteins were precipitated from HeLa cells, or Xenopus extracts and probed with antibodies specific for known mitotic phosphoproteins. As shown previously, levels of Plk1 and cyclin B1 increased at mitosis, whereas similar amounts of Cdc25C were present in interphase and mitotic HeLa cells. […] Similarly, only the mitotic, but not the interphase form of Xenopus Cdc27 was precipitated by Pin1.

[2] = target: T1, Pin1; experiment: Precipitation with GST-Pin1 beads of synthesized phosphoproteins incubated with interphase and mitotic Xenopus extracts; format: binding; parameters: key: +: a week but above background interaction; ++: readily detectable interaction; +++: strong interaction; settings: for Interaction with Pin1, Mitotic: mitotic Xenopus extracts
Description: The binding between Pin1 and all selected mitotic phosphoproteins was assayed by incubating synthesized proteins with interphase and mitotic Xenopus extracts, followed by precipitation with GST-Pin1beads. The Pin1 interactions with those proteins indicated with * were also confirmed by GST-Pin1 pull-down assay from endogenous interphase and mitotic HeLa cell extracts. +, a week but above background interaction; ++, readily detectable interaction; +++, strong interaction.
The mitotic phosphoproteins were translated in vitro using the TNT coupled transcription/translation kit (Promega) in a total volume of 10 μl in the presence of 8 μCi [^35S]methionine (1000 Ci/mmol) for 2 h at 30° C. They were then incubated in xenopus interphase and mitotic extracts as described (Stukenberg et al., 1997). These incubated clones were precipitated by Pin1 beads as described below. The Xenopus Mos and Weel clones were a kind gift of M. Murakami, G, F. Woude and J. Cooper; the Xenopus Cdc25 clone was a generous gift of W. Dunphy, T3 and T3S2 Cdc25 mutants were kindly provided by J. Maller (Izumi and Maller, 1993).
as §1
To gain a sense of the generality of the interaction between Pin1 and mitotic phosphoproteins and to confirm the Pin1 interaction with target proteins is indeed mediated by phosphorylation, the ability of Pin1 to bind other known mitotic phosphoproteins and a set of mitotic phosphoproteins identified by a systematic phosphoprotein screen (Stukenberg et al., Curr Biol 7:338-348 (1997). Proteins synthesized in vitro were phosphorylated in a cell cycle specific manner by incubating them in either Xenopus interphace or mitotic extracts. These labeled protein were subsequently incubated with GST-Pin1 beads that were extensively washed and the bound proteins analyzed by SDS-PAGE. To validate this method, Cdc25 was first tested. Again, the mitotically phosphorylated form of in vitro translated Cdc25 could be precipitated by GST-Pin1 beads. However, Cdc25 was not recognized by Pin1 if it was incubated in interphase extracts. […] Out of the 13 mitotic phosphoproteins examined, Pin1 bound 10 in a mitosis and phosphorylation-dependent manner (summarized in Table 1), including Weel, MP75 and MP110, MP75 and MP110 are Xenopus proteins related to microtubule-associated protein E-MAP-115 and the fission yeast G2 transcription factor Cdc5, respectively.

[3] = target: T1, Pin1; experiment: Confirmation of interaction between Pin1 and predicted Pin1 substrates; settings: Pin1 binding confirmed in vitro (SC35 inferred from colocalization)
Description: On the basis of amino acid preferences deduced in the 6 positions surrounding the pS-P motif for optimal Pin1 binding, a weighted screening of the SWISS-PROT sequence database. Protein sequence database screening was performed with the program INDOVINATOR, using an entropy-based weighing technique to score for relative information content at each amino acid position flanking the pS/pT-P motif with the quantitative peptide library results, which are shown qualitatively in Table 3. […] Many of these proteins are involved in regulation of the cell cycle, cytoskeletal/spindle structure, DNA replication, transcription or RNA processing (Table 4).
Several of these predicted proteins, such as Rab4, Cdc25 and NIMA, undergo mitosis-specific phosphorylation (R. Heald and F. McKeon, Cell 61:579 (1990); E. Bailly, et al., Nature 350:715 (1991); A. Blangy, et al., Cell 83:1159 (1995): J. Kuang, et al., Mol. Biol. Cell 5:135 (1994); X. S. Ye, et al., EMBO J. 14:986 (1995)). Cdc25 and NIMA also binds to Pin1 in a phosphorylation-dependent manner, as described herein. Other proteins identified in this search, however, had not been previously suspected of interacting with Pin1; therefore, a few were further investigated as example cases. […] Thus, Pin1 binds a wide functional range of mitotic phosphoproteins.

| Molecule | Interaction with Pin1, Mitotic [2] | Binding Confirmed [3] | further results |
| --- | --- | --- | --- |
| PTP-1B: protein hyperphosphorylated during mitosis |  |  | precipitation by Pin1 [1]: not precipitated by Pin1 in either interphase or mitotic extracts |
| B1 | ++ |  | Interaction with Pin1, Interphase ([2]; interphase Xenopus extracts): + |
| B2 |  | Yes |  |
| B3 | +++ |  |  |
| B4 | +++ |  |  |
| B5 |  | Yes |  |
| B6 | +++ | Yes |  |
